# Source: US5811393A (The Childrens Medical Center Corp., priority 1993, dated 1998)
# B1: HB-EHM: novel heparin binding growth factor with EGF-homologous segment, purified from U-937 lymphoma cell conditioned medium, about 22 kD (protein)
# chain: RVTLSSKPQALATPNKEEHGKRKKKGKGLGKKRDPCLRKYKDFCIHGECKYVKELRAPSCICHPGYHGERCHGLS
# modifications: O-linked glycosylation (suggested by O-glycanase treatment; the threonines predicted at positions 2 and 12 of the form first sequenced were not detected in protein sequencing)
# Assays:
# [1] = tested on: bovine capillary endothelial cells; assay: Proliferation / DNA synthesis of bovine capillary endothelial cells; type: cell-based; conditions: purified form
# Protocol: Conditioned medium was assayed for growth factor activity directly, as described below, using either fibroblasts (i.e., BALB/c mouse 3T3 cells), epithelial cells (i.e., human keratinocytes), or smooth muscle cells (i.e., bovine aortic smooth muscle cells, BASMC). Alternatively, CM was first fractionated by fast protein liquid chromatography (FPLC, Pharmacia, Piscataway, N.J.) by applying 500 ml of the CM to a TSK-heparin 5PW column (8×75 mm, TOSOHAAS, Philadelphia, Pa.). The column was washed with 10 column volumes of equilibration buffer (0.2M NaCl, 0.01M Tris-HCl, pH 7.5), and bound protein was eluted with a 40 ml linear gradient of 0.2-2M NaCl in 0.01M Tris-HCl , pH 7.4 at 1 ml/min. Fractions (2.5 ml) were tested for growth factor activity by measuring the effect of aliquots of the fractions on DNA synthesis in, or the proliferation of, BALB/c mouse 3T3 cells; such activity was monitored by assaying the incorporation of [^3 H]-thymidine into DNA and/or by measuring the increase in cell number. Measurement of DNA synthesis in BALB/c mouse 3T3 cells was performed as described by Shing et al. (223 Science 1296, 1984, hereby incorporated by reference). One unit of BALB/c mouse 3T3 stimulation activity was defined as the amount of growth factor required to stimulate half-maximal DNA synthesis in BALB/c mouse 3T3 cells under the conditions described in Shing et al. (supra). […]
# [2] = tested on: bovine aortic smooth muscle cells (BASMC); assay: Bovine aortic smooth muscle cell proliferation by cell counting; type: cell-based; conditions: 100 pg/ml; cells counted after three days, 1% calf serum
# Protocol: Bovine aortic smooth muscle cell proliferation was also assayed by counting cell number following growth factor stimulation. In these experiments, cells were plated sparsely in 24 well plates in DMEM/10% bovine calf serum/1% GPS (100% GPS is glutamine 29.2 mg/ml, penicillin 10,000 units/ml, streptomycin sulfate 10,000 μg/ml; GIBCO, Grand Island, N.Y.) at 10^4 cells/well. Test samples were then added and, after three days, cells were removed by trypsinization and counted in a Coulter counter (Coulter, Hialeah, Fla.).
# BASMC were plated in DMEM, 10% calf serum, 100 U/ml penicillin, 100 μg/ml streptomycin sulfate at 5×10^3 cells/well in a 24 well plate, and, after attachment of the cells (e.g., following an overnight incubation), the media was replaced with DMEM, 1% calf serum, and penicillin and streptomycin as above. HB-EHM, recombinant human EGF (Creative Biomolecules, Hopkinton, Mass.), or recombinant PDGF (Creative Biomolecules, Hopkinton, Mass.) was then added to the wells. Cells were counted after three days.
# [3] = tested on: EGF receptors on A-431 cells; assay: Competitive [125I]EGF binding to A-431 cells; design: species or system human
# Protocol: Competitive binding assays were used to measure this interaction and were performed as follows.
molecule,measurement,setting,value
B1,proliferation of bovine capillary endothelial cells,[1],did not stimulate proliferation
same,increase in BASMC proliferation,[2],2.5 fold
same,inhibition of the binding of [125I]EGF to A-431 cells,"[3]; maximal competition, confluent A-431 cells",~100%
same,binding to EGF receptors on A-431 cells,[3]; purified HB-EHM,found to bind
